Results from patent US20240270860A1.

Assays:
Assay in all cases: peptide-array ELISA (CYS.S) [Continued]
E2LS2…2RPGWY2 = molecular target: T1, E2LS2…2RPGWY2
T1 sequence (peptide, 2 = Cys(ACM)): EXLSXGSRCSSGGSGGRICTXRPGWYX

[1] = molecular target: T2, 2TREQNRI2…
T2 sequence (peptide, 2 = Cys(ACM)): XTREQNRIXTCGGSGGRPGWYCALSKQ

2LS2…2RPGWY2AL = molecular target: T3, 2LS2…2RPGWY2AL
T3 sequence (peptide, 2 = Cys(ACM)): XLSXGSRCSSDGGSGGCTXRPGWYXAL

[2] = molecular target: T4, SKQEGCRL2…
T4 sequence (peptide, 2 = Cys(ACM)): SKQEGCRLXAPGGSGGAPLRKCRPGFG

…2RPGWY [3] = molecular target: T5, …2RPGWY
T5 sequence (peptide, 2 = Cys(ACM)): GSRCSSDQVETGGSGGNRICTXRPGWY

…2RPGWY2A [4] = molecular target: T6, …2RPGWY2A
T6 sequence (peptide, 2 = Cys(ACM)): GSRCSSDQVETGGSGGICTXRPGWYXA

[5] = molecular target: T7, …2GGSGG2…
T7 sequence (peptide, 2 = Cys(ACM)): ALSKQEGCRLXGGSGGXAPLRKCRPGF

S2…2RPGWY = molecular target: T8, S2…2RPGWY
T8 sequence (peptide, 2 = Cys(ACM)): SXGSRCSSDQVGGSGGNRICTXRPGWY

[6] = molecular target: T9, …2…
T9 sequence (peptide, 2 = Cys(ACM)): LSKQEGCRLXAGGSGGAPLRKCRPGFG

[7] = molecular target: T10, …2…; remark: listed apart in the source
T10 sequence (peptide, 2 = Cys(ACM)): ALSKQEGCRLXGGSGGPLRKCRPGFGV

[8] = molecular target: T11, EQNRI2…
T11 sequence (peptide, 2 = Cys(ACM)): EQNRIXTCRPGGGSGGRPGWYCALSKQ

[9] = molecular target: T12, 2…
T12 sequence (peptide, 2 = Cys(ACM)): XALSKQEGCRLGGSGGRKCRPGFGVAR

…2RPGWY2 = molecular target: T13, …2RPGWY2
T13 sequence (peptide, 2 = Cys(ACM)): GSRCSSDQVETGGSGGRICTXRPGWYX

[10] = molecular target: T14, Y2…
T14 sequence (peptide, 2 = Cys(ACM)): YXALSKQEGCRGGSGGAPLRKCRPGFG

LS2…2RPGWY2 = molecular target: T15, LS2…2RPGWY2
T15 sequence (peptide, 2 = Cys(ACM)): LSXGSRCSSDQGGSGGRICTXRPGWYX

[11] = molecular target: T16, QEGCRL2…
T16 sequence (peptide, 2 = Cys(ACM)): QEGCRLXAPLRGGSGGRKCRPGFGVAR

[12] = molecular target: T17, WY2…
T17 sequence (peptide, 2 = Cys(ACM)): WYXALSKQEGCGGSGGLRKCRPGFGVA

…2RPGWY2A [13] = molecular target: T18, …2RPGWY2A; remark: listed apart in the source
T18 sequence (peptide, 2 = Cys(ACM)): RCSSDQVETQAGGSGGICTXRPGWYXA

[14] = molecular target: T19, Y2…; remark: listed apart in the source
T19 sequence (peptide, 2 = Cys(ACM)): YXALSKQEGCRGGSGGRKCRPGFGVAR

2LS2…2RPGWY = molecular target: T20, 2LS2…2RPGWY
T20 sequence (peptide, 2 = Cys(ACM)): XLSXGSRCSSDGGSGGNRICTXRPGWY

[15] = molecular target: T21, KQEGCRL2APLGGSGG2…
T21 sequence (peptide, 2 = Cys(ACM)): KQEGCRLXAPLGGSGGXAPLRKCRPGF

…2GGSGGCT2RPGWY2AL = molecular target: T22, …2GGSGGCT2RPGWY2AL
T22 sequence (peptide, 2 = Cys(ACM)): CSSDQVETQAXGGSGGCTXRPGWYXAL

E2LS2…2RPGWY2A = molecular target: T23, E2LS2…2RPGWY2A
T23 sequence (peptide, 2 = Cys(ACM)): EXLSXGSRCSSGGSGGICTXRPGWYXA

2…2RPGWY2A = molecular target: T24, 2…2RPGWY2A
T24 sequence (peptide, 2 = Cys(ACM)): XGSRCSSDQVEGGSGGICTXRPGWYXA

2…2RPGWY = molecular target: T25, 2…2RPGWY
T25 sequence (peptide, 2 = Cys(ACM)): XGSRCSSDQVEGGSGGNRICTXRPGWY

[16] = molecular target: T26, SKQEGCRL2…; remark: listed apart in the source
T26 sequence (peptide, 2 = Cys(ACM)): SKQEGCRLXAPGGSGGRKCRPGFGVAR

[17] = molecular target: T27, …2…; remark: listed apart in the source
T27 sequence (peptide, 2 = Cys(ACM)): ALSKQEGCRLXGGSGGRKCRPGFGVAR

E2LS2…2RPGWY2AL = molecular target: T28, E2LS2…2RPGWY2AL
T28 sequence (peptide, 2 = Cys(ACM)): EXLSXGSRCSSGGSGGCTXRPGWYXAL

[18] = molecular target: T29, SKQEGCRL2APGGSGG2…
T29 sequence (peptide, 2 = Cys(ACM)): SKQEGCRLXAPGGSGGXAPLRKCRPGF

…2RPGWY [19] = molecular target: T30, …2RPGWY; remark: listed apart in the source
T30 sequence (peptide, 2 = Cys(ACM)): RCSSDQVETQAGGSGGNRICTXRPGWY

LS2…2RPGWY2AL = molecular target: T31, LS2…2RPGWY2AL
T31 sequence (peptide, 2 = Cys(ACM)): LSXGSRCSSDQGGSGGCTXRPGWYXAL

S2…2RPGWY2AL = molecular target: T32, S2…2RPGWY2AL
T32 sequence (peptide, 2 = Cys(ACM)): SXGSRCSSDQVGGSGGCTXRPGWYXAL

…2RPGWY2A [20] = molecular target: T33, …2RPGWY2A; remark: listed apart in the source
T33 sequence (peptide, 2 = Cys(ACM)): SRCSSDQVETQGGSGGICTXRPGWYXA

[21] = molecular target: T34, WY2…2…
T34 sequence (peptide, 2 = Cys(ACM)): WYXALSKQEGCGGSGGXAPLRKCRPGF

VPE2LS2…2RPGWY2A = molecular target: T35, VPE2LS2…2RPGWY2A
T35 sequence (peptide, 2 = Cys(ACM)): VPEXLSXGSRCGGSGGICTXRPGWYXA

[22] = molecular target: T36, EGCRL2…
T36 sequence (peptide, 2 = Cys(ACM)): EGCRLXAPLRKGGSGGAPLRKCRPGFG

[23] = molecular target: T37, …2…; remark: listed apart in the source
T37 sequence (peptide, 2 = Cys(ACM)): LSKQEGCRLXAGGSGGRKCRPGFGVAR

[24] = molecular target: T38, KQEGCRL2…
T38 sequence (peptide, 2 = Cys(ACM)): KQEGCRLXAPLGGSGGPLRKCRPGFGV

[25] = molecular target: T39, KQEGCRL2…; remark: listed apart in the source
T39 sequence (peptide, 2 = Cys(ACM)): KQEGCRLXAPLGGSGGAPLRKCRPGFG

[26] = molecular target: T40, QNRI2…
T40 sequence (peptide, 2 = Cys(ACM)): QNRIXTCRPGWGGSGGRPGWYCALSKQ

[27] = molecular target: T41, 2…; remark: listed apart in the source
T41 sequence (peptide, 2 = Cys(ACM)): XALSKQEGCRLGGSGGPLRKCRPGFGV

B1: antagonistic TNFR2 antibody TNFRAB1 (antibody, V domains shown)
VH: EVQLQESGGGLVKPGGSLKLSCAASGFTFSSYVMSWVRQTPEKRLEWVATISSGGSYTYYPDSVKGRFTISRDNAKNTLYLQMSSLRSEDTAMYYCARQRVDGYSSYWYFDVWGAGTAVTVSS
VL: DIVLTQSPAIMSASPGEKVTITCSASSSVYYMYWFQQKPGTSPKLWIYSTSNLASGVPVRFSGSGSGTSYSLTISRMEAEDAATYYCQQRRNYPYTFGGGTKLEIKR
Raw luminescence data (E2LS2…2RPGWY2): 478
Raw luminescence data [1]: 101
Raw luminescence data (2LS2…2RPGWY2AL): 603
Raw luminescence data [2]: 220
Raw luminescence data (…2RPGWY [3]): 587
Raw luminescence data (…2RPGWY2A [4]): 403
Raw luminescence data [5]: 560
Raw luminescence data (S2…2RPGWY): 666
Raw luminescence data [6]: 253
Raw luminescence data [7]: 446
Raw luminescence data [8]: 263
Raw luminescence data [9]: 443
Raw luminescence data (…2RPGWY2): 594
Raw luminescence data [10]: 553
Raw luminescence data (LS2…2RPGWY2): 546
Raw luminescence data [11]: 426
Raw luminescence data [12]: 336
Raw luminescence data (…2RPGWY2A [13]): 372
Raw luminescence data [14]: 463
Raw luminescence data (2LS2…2RPGWY): 878
Raw luminescence data [15]: 528
Raw luminescence data (…2GGSGGCT2RPGWY2AL): 265
Raw luminescence data (E2LS2…2RPGWY2A): 454
Raw luminescence data (2…2RPGWY2A): 402
Raw luminescence data (2…2RPGWY): 588
Raw luminescence data [16]: 430
Raw luminescence data [17]: 455
Raw luminescence data (E2LS2…2RPGWY2AL): 605
Raw luminescence data [18]: 507
Raw luminescence data (…2RPGWY [19]): 247
Raw luminescence data (LS2…2RPGWY2AL): 510
Raw luminescence data (S2…2RPGWY2AL): 538
Raw luminescence data (…2RPGWY2A [20]): 388
Raw luminescence data [21]: 327
Raw luminescence data (VPE2LS2…2RPGWY2A): 540
Raw luminescence data [22]: 312
Raw luminescence data [23]: 474
Raw luminescence data [24]: 457
Raw luminescence data [25]: 242
Raw luminescence data [26]: 240
Raw luminescence data [27]: 414
